Test results taken from patent publication US20030165489A1.

Legend:
SP (substance P) [1] = target: T1, SP (substance P) (UniProt P20366)
T1 sequence: RPKPQQFFGLM

SP (substance P) [2] = target: SP (substance P) (UniProt P20366); assay: cell-based or functional assay

| Substance | degradation of SP identified by mass-spectrometry (SP (substance P) [1]) | diminution of SP-evoked vasodilatory response (100 pg SP, pig in vivo, after 50 µg DPPIV) (SP (substance P) [2]) [%] | diminution of SP-evoked vasodilatory response (1 ng SP, pig in vivo, after 50 µg DPPIV) (SP (substance P) [2]) [%] |
| --- | --- | --- | --- |
| Recombinant dipeptidyl peptidase IV (DPPIV), soluble form secreted from Aspergilus Fumigatus | SP (1.8 µg) co-incubated with 0.016 µg of DPPIV for ten minutes at 37 °C is degraded to SP5-11 | – | – |
| Recombinant dipeptidyl peptidase IV (DPPIV), soluble form secreted from Aspergilus Fumigatus (enzyme) | – | 66 | 71 |
